In paper doi:10.1101/2020.04.27.064493 (bioRxiv, 2020):

B1: H3_(1-24)K9me3/K18C/K23C peptide (peptide)
peptide: not shown
modifications: trimethyl-lysine at K9
B2: bovine DNMT1 RFTS domain (residues 349-594) (domain or fragment)
chain: PKCTECLQYLDDPELRYEQHPPDAVEEIQILTNERLSIFDANESGFESYEDLPQHKLTCFSVYCKRGHLCPIDTGLIEKDVELLFSGSAKPIYEDDPSPEGGINGKNFGPINEWWIAGFDGGEKALLGFSTSFAEYILMDPSPEYAPLFSVMQEKIYISKIVVEFLQSNPDSTYEDLINKIETTVPPCMLNLNRFTEDSLLRHAQFVVEQVESYDRAGDSDEQPIFLSPCMRDLIKLAGVTLGKRR

Experiments:
[1] = molecular target: B2; experiment: crystal structure
G76C-mutated ubiquitin = G76C-mutated ubiquitin (UniProt P0CG48 1-76, G76C); experiment: crystal structure

Binder | binding result [1] | binding result (G76C-mutated ubiquitin)
B1 | binds | binds
B2 |  | binds
